Values of other authors as cited in article doi:10.1101/2024.07.26.605324.

Columns and labels:
His19 = His19 (UniProt position 19, ILSALHFMAWT); assay: NMR; details: 243–263 K; membrane-bound tetramer, wild type with both His19 and His27 present
His27 = His27 (UniProt position 27, AWTIGHLNQIK); assay: NMR; details: 243–263 K; membrane-bound tetramer, wild type with both His19 and His27 present

Influenza B virus matrix protein 2 (BM2) proton channel (Influenza B virus)
pKa (His19): 4.2
pKa (His27): 7.9
